Measured values from the nanobody polyreactivity screen of Harvey et al. (2022).

Experiment: yeast display, Sf9 membrane polyspecificity reagent, FACS + sequencing; frameworks hold sequencing errors
Outline: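 Galactose-induced (36–48 hours) yeast carrying a synthetic nanobody display library were exposed to 10% biotinylated, detergent-solubilized Sf9 membrane reagent at 4 °C for 1 hour. FACS followed streptavidin microbead enrichment, using low and high (top ~1%) gates for expression (anti-HA) and reagent binding (streptavidin). Colony PCR, MiSeq 2 × 250 sequencing and CDR-length filtering followed. Labels for polyreactivity reflect the gate of origin.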

Row | Sequence | polyreactivity (PSR sort gate)
1 | QVQLVESGGGLVQAGGSLRLSCAASGNIFRKNAMGWYRQAPGKERELVAAITSVGSTNYADSVKGRFTISRDNAKNTVYLQMTSLKPEDTAVYYCDARSQIYYRYRSYGYWGQGTQVTVSS | high polyreactivity
2 | QVQLVESGGGLVQAGGSLRLSCAASGNIFRNNAMGWYRQAPGKERELVAAISRGGSTYYADSVKGRFTISRDNAKNTVYLQMNSLKPEDTAVYYCNKYSSRAYNYWGQGTHVTVSS | high polyreactivity
3 | QVQLVESGGGLVQAGGSLRLSCAASGNIFRSYAMGWYRQAPGKERELVAAISSSDDSTYYADSVKGRFTISRDNAKNTVYLQMNSLKPEDTAVYYCAADGWSWYKGYVGDDMDYWGQGTQVTVSS | low polyreactivity
4 | QVQLVESGGGLVQAGGSLRLSCAASGNIFSAYAMGWYRQAPGTERELVAAISRSVTITYYADSVKGRFTISRDNAKKTDYLQMNSLKPEDTAVYYCAARDYHYPKFGYCGQGTQVTVSS | high polyreactivity
5 | QVQLVESGGGLVQAGGSLRLSCAASGNIFSDNAMGWYRQAPGKERELVATITSSGVSTYYADSVKGRFTISRDNAKNTVYLQMNSLKPEDTAVYYGAVQGFRYHSREYDYWGQGTQVTVSS | low polyreactivity
6 | QVQLVESGGGLVQAGGSLRLSCAASGNIFSDYAMGWYRPAPGKERELVAAISSGGNTNYADSVKGRFTISRDNAKNTVYLQMNSLKPEDTAVYYCAADPGYYVSAYDYWGQGTQVTVSS | low polyreactivity
7 | QVQLVESGGGLVQAGGSLRLSCAASGNIFSFNDVGGSRQAPGNEREWVAAITSSDSTNYADSVKGRFTISRDNAKNTVYLQMNSLKPEDTAVYYCATEILTAARDTVVYQFYLGYYYWGQGTQVTVSS | low polyreactivity
8 | QVQLVESGGGLVQAGGSLRLSCAASGNIFSFYAMGWYRQAPGKERELVAAINWSGGDTYYADSVKGRFTISRDNAKNTVYLQMNSLKPEDTAVYYCAAEYYYQYYPGGYDYWGQGTQVTVSS | high polyreactivity
9 | QVQLVESGGGLVQAGGSLRLSCAASGNIFSRYAMGWYRKAPGKERELVAAISKSGGSTYYADSVKGRFTISRDNAKNTVYLQMNSLKPEDSAVYYCAAYSFFLGYPEFDYWGQGTQVTVSS | high polyreactivity
10 | QVQLVESGGGLVQAGGSLRLSCAASGNIFSSNAMGWYRQAPGKERELVAAITRSGGSTYYADSVKGRFTISRDNSKKTVYLLMNSLKPEDTAFYYCAARHYPRNSWGYDYWGQGSQVTVSS | high polyreactivity
11 | QVQLVESGGGLVQAGGSLRLSCAASGNIFSVYAMGWYRQAPGKERELVAAISSSGGRTYYADSVKGRFTISRENSKNTVYLQMNSLKPEDTAVYYCAARSYTGQFGYWGQGTQVTVSS | high polyreactivity
12 | QVQLVESGGGLVQAGGSLRLSCAASGNIFSYYAMGWYRQAPGKERELVAAIYTGGSTYYADSVKGRFTISRDNAKNTVYLQMNSLKPEDTAVYYCAARGLKLRQDYDYWGQGTQVTVSS | low polyreactivity
13 | QVQLVESGGGLVQAGGSLRLSCAASGNIFTFNAMGWYRQAPGKERELVAAIRSGGSTNYADSVKGRFTISRDNAKNTVYLQMNSLIPEDTAVYYCAAKRYVQGYVYRFGYWGQGTQVTVSS | high polyreactivity
14 | QVQLVESGGGLVQAGGSLRLSCAASGNIFTGNAMGWYRQAPGKERELVAAISSGGGSTYYADSVKGRFTISRDNAKNTVYLQMNSLKPEDTAVYYCAASRVRYSYGYPYYYWGQGTQVTVSS | high polyreactivity
15 | QVQLVESGGGLVQAGGSLRLSCAASGNIFTYYVMGWYRQAPGKESELVAAISRRGGSTYYADSVKGRFTISRDNAKNTVYLQMNSLNPEDTAVYYCADRWYKWSTFSGWSRYDYWGQGTQVTVSS | high polyreactivity
16 | QVQLVESGGGLVQAGGSLRLSCAASGNIFVAYAMGWYRQAPGKERELVAAITYNGGRTYYADSVKGRFTISRDNAKNTVYLQMNSLKPEDTAVYYCAARGYNPYGRKVGYWGQGTQVTVSS | high polyreactivity
17 | QVQLVESGGGLVQAGGSLRLSCAASGNIFVGNAMGWYRQAPGKERELVAAIRRSGGTTYYADSVKGRFTISRDIAKNTVYIQMNSLKPEDTAVYYSAASRPYQGDYWGQGTQVTVSS | low polyreactivity
18 | QVQLVESGGGLVQAGGSLRLSCAASGNIFVNYAMGWYRQAPGKERELVASINYNGGNTYYADSVKGRFTISRDNAKNTVYLQMNSLKPEDTAVYYCAADLPESPESYYDTDDYWGQGTQVTVSS | low polyreactivity
19 | QVQLVESGGGLVQAGGSLRLSCAASGNIFVPSAMGWYRQEPGKERELVAAINVGGSTNYADSLNGRFTNSRDNPKNTVYLQMNSVKPEDTAVNYFGAVWYFLSLWYDYWGHGTQVTVSS | high polyreactivity
20 | QVQLVESGGGLVQAGGSLRLSCAASGNIFYAYAMGWYRQAPGKEREFVAAITKNGGSTYYADSVKGRFTISRDNAKNTVYLQMISLKPEYTAVYYCTAGGVYPRFTFLEQGYEMDYWGQGTQVTVSS | low polyreactivity
21 | QVQLVESGGGLVQAGGSLRLSCAASGNIFYAYDMGWYRQAPGKERELVAAITNGDSTDYADSVKGRFTISRDNAKNTVYLQMNSLKPEDTAVYYCNAYYLPEPWALGGSQYDYWGQGTQVTVSS | low polyreactivity
22 | QVQLVESGGGLVQAGGSLRLSCAASGNIFYINAMGWYRQAPGKERELVAAISSGGRTNYADSVKGRFTISRDNAKNTVYLQMNSLNPEDTEVYYCNADGWYAWRYYAPGGYDYWGQGTQVTVSS | low polyreactivity

Row | Sequence | polyreactivity (PSR sort gate)
23 | QVQLVESGGGLVQAGGSLRLSCAASGNIFYNVMGWYRQAPGKERELVAVISSGDSTYYADSVKGRFTISRDNAKNTVYLQMNSLKPEDTAVYYCNAQWITSAYLLYSYDYWWGYDYWGQGTQVTVSS | high polyreactivity
24 | QVQLVESGGGLVQAGGSLRLSCAASGNIFYRYAMGWYRQAPGKERELVAAISGNSGNTYYADSVKGRFTISRDNAKNSVYLQMNSLKPEDTAVYYCAARPYYSYAGSGGYWGQGTQVTLSS | high polyreactivity
25 | QVQLVESGGGLVQAGGSLRLSCAASGNIFYVYVMGGYRQAPGKERELVASITSGASTYYADSVKGRFTISRDNAKNTVYLQMNSLKPDDTAVYYCAAEALGGAGDYSTLYIYDYWGQGTQVTVSS | low polyreactivity
26 | QVQLVESGGGLVQAGGSLRLSCAASGNIFYYNAMGWYRQAPGKVRELVAAITRSAGSTYYADSVKGRFPISRDNAKNTVYLQMNSLKPEDTAVYYCAATYSDLGYRYYSLGQGTQVTVSS | high polyreactivity
27 | QVQLVESGGGLVQAGGSLRLSCAASGNIIIPYAMGWYRQAPGNEREFVAVMSTRGGSTYYADSVKGRFTISRDNAQNTVYLQMNSLKPEDTAVYYCAARYPYRYDYWGQGTQVTVSS | high polyreactivity
28 | QVQLVESGGGLVQAGGSLRLSCAASGNIITTYAMGWYRQAPGKERELVAAISRSGGRTNYADSVKGRFTISRDNAKNTVYLQMNSLKPEDTAVYYCAADGVPGRAVDYEYWGQGTQVTVSS | high polyreactivity
29 | QVQLVESGGGLVQAGGSLRLSCAASGNILEGYTMGWYRQAPGKERELVATISGRGGSTYYADSVKGRFTISRDYAKNTVYLQMHSLKPEDTAVYYCNALPWALYDSTSIYYYWGQGTQVTVSS | low polyreactivity
30 | QVQLVESGGGLVQAGGSLRLSCAASGNILEGYTMGWYRQAPGQERELVATISGRGGSTYYADSVKGRFTMSRDNAKNTVYLQMHSLKPEDTAVYYCNALPWALYESTSIYYYWGQGTQVTVSS | low polyreactivity
31 | QVQLVESGGGLVQAGGSLRLSCAASGNILGSYAMGWYRQAPWKQRELVAAITWSGGTTYYADSVKGRFTISCDNAKNTVYLQMNSLKPEDTAVYYCAVEIVLTRFDYWGQGTQVTVSS | low polyreactivity
32 | QVQLVESGGGLVQAGGSLRLSCAASGNILGTYAMGWYRQAPGKERELVAAISSSVGSTYYADSVKGRFSISRDNAKKTVYLQMNSLKPEDTAVYYCAARNYQFYEKWGYLYDYWGQGTQVTVSS | low polyreactivity
33 | QVQLVESGGGLVQAGGSLRLSCAASGNILRFNAMGWYRQAPGKERELVAAISRSGGTTYYADSVKGRFTISRDNAKNTVYLQMNSLKPEDTAVYYCAARSRYGESPGYYWGQGTQVTVSS | high polyreactivity
34 | QVQLVESGGGLVQAGGSLRLSCAASGNISLPYTMGWYRQAPGKERELVAAISWDGGRTYYADSVKGRFTISRDNAKNTDYLQMNSLKPEDTAVYYCGARFFLVTLDYWGQGTQVTVSS | low polyreactivity
35 | QVQLVESGGGLVQAGGSLRLSCAASGNMFYRNGMGWYRQAPGKERQFVAAISRRGGSTYYADSVKGRFTISRDNAKNTVYLQMNSLKPEDTAVYYCATRYWPTNKGEYWGQGTQVTVSS | high polyreactivity
36 | QVQLVESGGGLVQAGGSLRLSCAASGNNFSRYSMGCSRPAPGKERELVASISRGGRTNYADSVKGRFTISLDNAKNTVYLQMNSLNPEDTAVYYCALGGNGYWHQSGPYPYNYWGQGTQVTVSS | high polyreactivity
37 | QVQLVESGGGLVQAGGSLRLSCAASGNNLSVYTMGWYRQAPGKERELVATITYSGDRTYADSVKGRFTISRDNAKNTVYLQMNSLKPEDTAVYYCAKRNFGSYIRRGHWGQGTQVTVSS | low polyreactivity
38 | QVQLVESGGGLVQAGGSLRLSCAASGNSFREYTMGWCRQAPGKERELVAGISGSGGRTYYADSVKGRFTISRDNAKNTVFLQMNSLKPEDTAVYYCNDRWYYGIGYNYWGQGTQVTVSS | high polyreactivity
39 | QVQLVESGGGLVQAGGSLRLSCAASGNTFAGNAMGWYRHAPRKERELVAAISRSGVTTRYGDSVKGRFTISRDNAKNTVYLQMNSLKPEDTAVYYCNAVPRLRQTREYWGQGTQVTVSS | high polyreactivity
40 | QVQLVESGGGLVQAGGSLRLSCAASGNTFAGNAMGWYRQAPGKERELVAAISRSGVTTRYADSVKGRFTISRDNAKNTVYLQMNSLKPEDTAVYYCNADPRLRQTRDYWGQGTQVTVSS | high polyreactivity
41 | QVQLVESGGGLVQAGGSLRLSCAASGNTFASNAMGWYRQAPGKERELVATISTSGTTYYADSVKGRFTISRDNAKNTVYLQMNSLKPEDTAVYYCARTFKSRRGSRGYYWGQGTQVTVSS | high polyreactivity
42 | QVQLVESGGGLVQAGGSLRLSCAASGNTFATYAMGWYRQAPGKERELVAGITVDGASTNYADSVKGRFTISRDNAKNTVYLQMNSLKPEDTAVYYCNADYTTQVYDSTWPGDFGYWGQGTQVTVSS | high polyreactivity
43 | QVQLVESGGGLVQAGGSLRLSCAASGNTFAVNAMGWYRQAPGKERELVAAISKRGGRTYYADSVKGRFTISRDNAKNTVYLQMNSLKPEDTAVYYCNTGYIFSSFYSSKYGYWGQGTQVTVSS | high polyreactivity
